Experimental data taken from patent US20250313627A1 (FUSE BIOTHERAPEUTICS, published 2025).

What was measured:
[1] = target: T1, human ROR1 (Receptor Tyrosine Kinase-Like Orphan Receptor 1) on the cell surface (human, UniProt Q01973 30-937); assay: cell-based or functional assay
[2] = target: T1, human ROR1 (Receptor Tyrosine …); assay: flow cytometry on ROR1+ MDA-MB-231 cells, secondary antibody to the IgG1 Fc; table row 'Binding EC50 (nM)', the graph's axis reads 'Concentration (pM)'
human CD3 on T cells = target: T2, human CD3 on T cells (human, UniProt P07766 23-207; P09693 23-182; P04234 22-171; P20963 22-164); assay: flow cytometry on CD3+ Jurkat NFAT Lucia cells, secondary antibody to the IgG1 Fc
T2 construct: whole, on cells; also called human CD3 on Jurkat T cells; human CD3 on T cells isolated from human PBMC
T2 sequence (P07766 23-207, chain 1 of 4): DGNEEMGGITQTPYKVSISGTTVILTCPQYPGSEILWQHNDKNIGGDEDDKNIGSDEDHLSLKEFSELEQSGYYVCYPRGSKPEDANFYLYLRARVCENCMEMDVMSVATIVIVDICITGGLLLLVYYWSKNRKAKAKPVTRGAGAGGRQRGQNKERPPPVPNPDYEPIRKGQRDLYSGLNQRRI
T2 sequence (P09693 23-182, chain 2 of 4): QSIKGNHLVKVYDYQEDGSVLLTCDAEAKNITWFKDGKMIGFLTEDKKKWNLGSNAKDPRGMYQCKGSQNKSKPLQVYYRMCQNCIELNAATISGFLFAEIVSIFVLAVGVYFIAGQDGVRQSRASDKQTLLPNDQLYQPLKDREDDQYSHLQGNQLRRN
T2 sequence (P04234 22-171, chain 3 of 4): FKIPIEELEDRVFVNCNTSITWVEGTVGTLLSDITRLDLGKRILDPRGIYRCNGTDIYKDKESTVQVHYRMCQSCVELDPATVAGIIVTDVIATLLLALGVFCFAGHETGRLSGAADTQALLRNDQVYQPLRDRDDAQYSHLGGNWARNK
T2 sequence (P20963 22-164, chain 4 of 4): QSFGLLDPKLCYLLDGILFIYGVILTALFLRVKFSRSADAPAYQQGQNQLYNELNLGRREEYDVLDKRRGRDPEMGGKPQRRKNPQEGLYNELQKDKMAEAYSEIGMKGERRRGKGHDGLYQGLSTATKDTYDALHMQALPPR

[3] = target: T3, recombinant His tagged human ROR1 (human, UniProt Q01973 30-403, limits assumed); assay: BLI (Octet), FUSE protein on the tip, His tagged ROR1 in solution; 2A11 parental VHH-Fc
T3 construct: Analyte in the BLI assay; also called Human ROR1-His; recombinant ROR1
T3 sequence (Q01973 30-403 limits assumed): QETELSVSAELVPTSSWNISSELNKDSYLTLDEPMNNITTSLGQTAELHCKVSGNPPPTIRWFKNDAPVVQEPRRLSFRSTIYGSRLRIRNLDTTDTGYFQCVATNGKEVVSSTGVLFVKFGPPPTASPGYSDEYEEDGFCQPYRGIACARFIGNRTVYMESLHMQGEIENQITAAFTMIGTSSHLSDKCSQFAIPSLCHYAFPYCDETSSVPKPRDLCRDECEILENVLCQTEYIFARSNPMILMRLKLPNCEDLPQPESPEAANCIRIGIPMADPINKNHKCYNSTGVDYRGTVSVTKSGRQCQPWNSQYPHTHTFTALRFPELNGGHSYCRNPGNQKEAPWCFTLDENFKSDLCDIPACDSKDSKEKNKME
Method: (§1) As shown in FIGS. 5A-5D, the binding affinities (KD) of TCEs for ROR1 were assessed. We examined the magnitude by which several TCEs and mutants thereof bind to recombinant ROR1. Kinetic binding graphs were generated via Bio-Layer Interferometry (BLI) using an Octet system. For each TCE, the biosensor tips were coated with FUSE proteins at 15 μg/ml and probed with either recombinant His tagged ROR1 at concentrations ranging from 100 pM to 10 μM. […] The binding affinity (KD), on rate (k-on) and off rate (k-dis), are summarized for ROR1 in FIG. 5D.
(§2) We further examined the impact of mutating the cysteine residues located in CDR1 and CDR3 of 2A11 VHH and 5A1 VHH.

[4] = target: T3, recombinant His tagged human ROR1; assay: BLI (Octet), VHH-Fc loaded on the biosensor, His tagged ROR1 in solution; column 'kdis(1/s)'
[5] = target: T1, human ROR1 (Receptor Tyrosine …); assay: flow cytometry, LS174T cells expressing human ROR1 (low density)
Method: (§3) As shown in the tables below, mouse B16-F10 melanoma (Tables 9A-9F) or LS174T human colorectal adenocarcinoma (Tables 9G-9H) cells genetically engineered to express human ROR1 at high and low densities, respectively, were stained for flow cytometric analysis with 100 nM of humanized variants of the ROR1 specific VHHs, 5A1 or 2A11 in either a VHH-Fc format or the Ac13 format shown in FIG. 1. Cells were analyzed on a flow cytometer after the primary test article was fluorescently tagged with a goat anti human IgG-Fc specific PE secondary antibody. The positive control used was PE conjugated anti-human ROR1 clone 2A2. Negative controls included a PE labeled mouse IgG Ab, the secondary antibody only, the combination of a Hen Egg Lysozyme (HEL) specific antibody plus goat anti human IgG-Fc specific PE and Fluorescence Minus One (FMO). Other controls included the non-humanized version of 5A1-Fc (FUSE179), 2A11-Fc (FUSE112) and 5A1-Ac13 (FUSE488). Humanized variants were generated using computational design (FUSE489, FUSE497-498, FUSE563, FUSE569-570, and BI-HU9-VHH11-33), a yeast display library in which mutations were inserted into the Vernier zone residues of human framework indicated in GenBank accession number M99660 (FUSE524-525, FUSE589, FUSE597-598, FUSE537, FUSE661-662, BI-HU9-HK and BI-HU9-HK-1), and a second yeast display library in which mutations were inserted into the Vernier zone residues of human framework indicated in GenBank accession number AWH66715 and amino acid position 103 within CDR3 (FUSE559, FUSE590-596, BI-HU9-VH9-1, FUSE654-655 and FUSE661-662. Affinity matured variants of FUSE559 were also generated using computational design (F22158101-21; Table 9H).

[6] = target: T1, human ROR1 (Receptor Tyrosine …); assay: flow cytometry, B16-F10 cells expressing human ROR1 (high density)
Method: as §3

[7] = target: T1, human ROR1 (Receptor Tyrosine …); assay: as above; remark: listed apart in the source
Method: as §3

[8] = target: T1, human ROR1 (Receptor Tyrosine …); assay: as above; remark: listed apart in the source
Method: as §3

[9] = target: T3, recombinant His tagged human ROR1; assay: BLI (Octet), VHH-Fc loaded on the biosensor, His tagged ROR1 in solution
[10] = target: T1, human ROR1 (Receptor Tyrosine …); assay: flow cytometry, B16-F10 cells expressing human ROR1 (high density); remark: listed apart in the source
Method: as §3

[11] = target: T3, recombinant His tagged human ROR1; assay: SPR (Biacore 8K), recombinant human ROR1 amine-coupled on a CM5 chip (4400 RU), analyte 200nM, 1:1 binding fit; column '1:1 binding ka (1/Ms)' [table below it]
Method: (§4) Protein test article binding to recombinant human ROR1 (Acro Biosystems, RO1-H522y) was detected on a BIAcore 8K (Cytiva) biosensor system using an SPR assay. Briefly, a carboxymethylated CM5 sensor chip was activated with 1:1 mixture of 0.4 M N-ethyl-N-(3-dimethylaminopropyl) carbodiimide and 0.1 M′ N-hydroxysuccinimide. Recombinant human ROR1 in 10 mM NaOAc (pH5) was then immobilized on the sensor chip by amine-coupling according to the manufacturer's instructions to yield the stable RU of 4400. Unreacted sites were blocked with 1M ethanolamine/HCl (pH 8). Control flow cells (blank) were activated and blocked in the absence of ROR1. Flow cells were routinely equilibrated with running buffer (PBS, 0.005% surfactant P20). Test article proteins used for assessment of binding to recombinant human ROR1 binding were diluted in HBS-EP running buffer and injected into the sensor chip at different concentrations. […] Data from duplicate assays were modeled for binding equilibrium and dot plots for 200 nM of protein test article was calculated. Association constant (ka), dissociation constant (kd) and binding affinity (KD=kd/ka) were generated from integrated software in the BIAcore 8K system.
(§5) Shown are sensorgrams of surface plasmon resonance (SPR) data generated via Biacore analysis. A summary table of binding affinity (KD), on rate (k-a) and off rate (kd) is shown below FIG. 16B.

[12] = target: T1, human ROR1 (Receptor Tyrosine …); assay: flow cytometry, LS174T cells expressing human ROR1 (low density); remark: listed apart in the source
Method: as §3

[13] = target: T1, human ROR1 (Receptor Tyrosine …); assay: flow cytometry, B16-F10 cells expressing human ROR1 (high density); remark: listed apart in the source
Method: as §3

[14] = target: T1, human ROR1 (Receptor Tyrosine …); assay: flow cytometry on B16-F10 cells engineered to express human ROR1, secondary antibody to the IgG1 Fc
Method: As shown in FIG. 15 the apparent binding affinity (EC50-binding) of the ROR1 specific VHH-Fc incorporating either the non humanized VHH clone 5A1 (FUSE179; black circle), the humanized clone 5A1-FA9-HK1 (FUSE559; black square) or the humanized clone 5A1-HK1 (FUSE524; black triangle) was calculated. Shown is a non-linear x-y plot of binding to B16-F10 cell engineered to express human ROR1 relative to the concentration of test article used for staining. A Hen Egg Lysozyme (HEL)-specific antibody was used as the negative isotype control. Binding was measured via flow cytometry using a fluorescently labeled secondary antibody specific for the Fc domain of IgG1. A summary table of EC50s and maximum MFI is shown beneath under the graph.

[15] = target: T3, recombinant His tagged human ROR1; assay: BLI (Octet), FUSE protein on the tip, His tagged ROR1 in solution; 5A1 parental VHH-Fc
Method: as §1, §2

[16] = target: T3, recombinant His tagged human ROR1; assay: SPR (Biacore 8K), recombinant human ROR1 amine-coupled on a CM5 chip (4400 RU), analyte 200nM, 1:1 binding fit; column 'kd (1/s)' [table below it]
Method: as §4, §5

[17] = target: T3, recombinant His tagged human ROR1; assay: BLI (Octet), VHH-Fc loaded on the biosensor, His tagged ROR1 in solution; column 'kdis(1/s)'; remark: listed apart in the source
[18] = target: T3, recombinant His tagged human ROR1; assay: SPR (Biacore 8K), recombinant human ROR1 amine-coupled on a CM5 chip (4400 RU), analyte 200nM, 1:1 binding fit [table below it]
Method: as §4, §5

[19] = target: T3, recombinant His tagged human ROR1; assay: BLI (Octet), VHH-Fc loaded on the biosensor, His tagged ROR1 in solution; remark: listed apart in the source

T1 sequence (Q01973 30-937): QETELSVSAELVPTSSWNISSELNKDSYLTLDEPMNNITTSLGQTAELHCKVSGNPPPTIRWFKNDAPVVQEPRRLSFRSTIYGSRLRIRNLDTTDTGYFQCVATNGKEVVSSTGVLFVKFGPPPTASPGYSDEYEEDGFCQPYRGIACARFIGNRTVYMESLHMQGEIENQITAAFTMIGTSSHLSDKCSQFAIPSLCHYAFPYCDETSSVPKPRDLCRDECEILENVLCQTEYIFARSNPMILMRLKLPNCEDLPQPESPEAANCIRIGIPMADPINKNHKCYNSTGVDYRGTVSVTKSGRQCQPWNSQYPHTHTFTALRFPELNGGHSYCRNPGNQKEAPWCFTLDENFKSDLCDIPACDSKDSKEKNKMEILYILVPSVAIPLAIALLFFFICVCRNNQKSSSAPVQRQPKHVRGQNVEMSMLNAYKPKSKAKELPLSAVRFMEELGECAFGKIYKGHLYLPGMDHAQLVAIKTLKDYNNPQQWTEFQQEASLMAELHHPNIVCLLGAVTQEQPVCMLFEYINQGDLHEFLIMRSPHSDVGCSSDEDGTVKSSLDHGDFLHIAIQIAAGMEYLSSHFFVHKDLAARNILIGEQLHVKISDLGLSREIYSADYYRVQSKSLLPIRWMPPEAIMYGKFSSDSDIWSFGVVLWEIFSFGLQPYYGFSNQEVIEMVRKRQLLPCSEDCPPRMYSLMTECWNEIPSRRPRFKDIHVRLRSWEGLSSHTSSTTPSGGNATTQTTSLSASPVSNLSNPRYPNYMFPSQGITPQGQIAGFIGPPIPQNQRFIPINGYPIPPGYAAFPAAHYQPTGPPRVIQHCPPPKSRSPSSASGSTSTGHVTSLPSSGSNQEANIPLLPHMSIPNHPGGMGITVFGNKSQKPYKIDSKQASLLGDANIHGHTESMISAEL

B1: FUSE608 (humanized CD3 clone 1F3.3 x humanized clone 5A1-FA9-HK1) (bispecific antibody)
heavy: EVQLVESGGGLVQPGGSLRLSCAASGFTFSTYAMNWVRQAPGKGLEWVARIRSKYNNYATYYADSVKDRFTISRDDSKNTLYLQMNSLRAEDTAVYYCARHGNFGNSYVSWFAYWGQGTMVTVSSASTKGPSVFPLAPSSKSTSGGTAALGCLVKDYFPEPVTVSWNSGALTSGVHTFPAVLQSSGLYSLSSVVTVPSSSLGTQTYICNVNHKPSNTKVDKKVEPKSCDKTHTCPPCPAPEAAGGPSVFLFPPKPKDTLMISRTPEVTCVVVDVSHEDPEVKFNWYVDGVEVHNAKTKPREEQYNSTYRVVSVLTVLHQDWLNGKEYKCKVSNKALPAPIEKTISKAKGQPREPQVYTLPPSREEMTKNQVSLSCAVKGFYPSDIAVEWESNGQPENNYKTTPPVLDSDGSFFLVSKLTVDKSRWQQGNVFSCSVMHEALHNRFTQKSLSLSPGK
VHH-Fc: EVQLLESGGGLVQPGGSLRLSCTASGYTNRLKCMGWFRQAPGKEREEIASISTGTGNTYYADSVKGRFTISRDKSRNTLYLQMNTLRAEDTAVYYCAADVRPHGTTCHYNSRGQGTQVTVSSEPKSSDKTHTCPPCPAPEAAGGPSVFLFPPKPKDTLMISRTPEVTCVVVDVSHEDPEVKFNWYVDGVEVHNAKTKPREEQYNSTYRVVSVLTVLHQDWLNGKEYKCKVSNKALPAPIEKTISKAKGQPREPQVYTLPPSREEMTKNQVSLWCLVKGFYPSDIAVEWESNGQPENNYKTTPPVLDSDGSFFLYSKLTVDKSRWQQGNVFSCSVMHEALHNHYTQKSLSLSPGK
light: QAVVTQEPSLTVSPGGTVTLTCRSSTGAVTTSNYANWVQQKPGQAPRGLIGGTNKRAPGTPARFSGSLLGGKAALTLSGVQPEDEAEYYCALWYSNLWVFGGGTKLTVLGQPKAAPSVTLFPPSSEELQANKATLVCLISDFYPGAVTVAWKADSSPVKAGVETTTPSKQSNNKYAASSYLSLTPEQWKSHRSYSCQVTHEGSTVEKTVAPTECSGGGGSGGGGSGGGGSGGGGSEVQLLESGGGLVQPGGSLRLSCTASGYTNRLKCMGWFRQAPGKEREEIASISTGTGNTYYADSVKGRFTISRDKSRNTLYLQMNTLRAEDTAVYYCAADVRPHGTTCHYNSRGQGTQVTVSS
[1]
  fold decrease in T cell mediated IFNγ release with ROR1+ MDA-MB-231, potency against FUSE399: ~25 fold
[2]
  EC50: 2.9 nM
Human CD3 on T cells
  EC50: 8.18 nM

B2: FUSE-112 (2A11 VHH-human-Fc fusion protein) (Fc fusion)
chain: QVQLQESGGGSVPAGGSLRLSCAASGSTYSANCMGWFRQAPGKEREEVASMSIRSGRTYYSDSVKGRFTISQDGSKNTLYLQLNSLKAEDTALYYCAAAYGGSRCVYNYRGQGTQVTVSS
notes: VHH-human-Fc fusion; non-humanized 2A11; also called 2A11-Fc; not shown: human Fc
[3]
  Kd: ~4 nM
[4]
  koff: 0.00183 s⁻¹
[5]
  MFI: 4340
[6]
  MFI: 11900
[7]
  MFI: 7840
[8]
  MFI: 208000
[9]
  Kd: 42.4 nM
  kon: 43100 M⁻¹ s⁻¹

B3: FUSE-179 (5A1 VHH-human-Fc fusion protein) (Fc fusion)
chain: QVQLQESGGGSVQAGGSLKLSCTASGYTNRLKCMGWFRQAPGKEREEIATISTGTGNTYYADSVKGRFTFSQDKVKNTVYLQMNTLKPDDTGMYYCAADVRPDGTTCHYNSGGQGTQVTVSS
notes: VHH-human-Fc fusion; non-humanized 5A1; not shown: human Fc
[10]
  MFI: 4220
[11]
  kon: 144000 M⁻¹ s⁻¹
[5]
  MFI: 836
[12]
  MFI: 3060
[13]
  MFI: 3730
[14]
  EC50: 2.04 nM
  Max MFI: 4900 MFI
[15]
  Kd: ~4 nM
[6]
  MFI: 8480
[7]
  MFI: 4480
[16]
  koff: 0.00106 s⁻¹
[8]
  MFI: 93800
[17]
  koff: 0.00174 s⁻¹
[18]
  Kd: 7.38 nM
[19]
  Kd: 36 nM
  kon: 48200 M⁻¹ s⁻¹
